The text below walks through data of PMC8913689, “Atomic force microscopy-single-molecule force spectroscopy unveils GPCR cell surface architecture” (Communications Biology, 2022).

The series deals with the molecule itself. Nature of the series: AFM single-molecule force spectroscopy (AFM-SMFS); living WTT-CHO cells transfected with 1 µg of HA-GPCR vector, basal state, 37 °C; anti-HA antibody on the AFM tip pulls the HA-receptor out of the membrane; unfolding distances fitted by a Gaussian mixture (BIC) and each population assigned to an oligomeric state by the receptor's theoretical length.

B1: HA-angiotensin II subtype 1a receptor (receptor, UniProt P25095 1-359, looked up)
chain: MALNSSAEDGIKRIQDDCPKAGRHSYIFVMIPTLYSIIFVVGIFGNSLVVIVIYFYMKLKTVASVFLLNLALADLCFLLTLPLWAVYTAMEYRWPFGNHLCKIASASVSFNLYASVFLLTCLSIDRYLAIVHPMKSRLRRTMLVAKVTCIIIWLMAGLASLPAVIHRNVYFIENTNITVCAFHYESRNSTLPIGLGLTKNILGFLFPFLIILTSYTLIWKALKKAYEIQKNKPRNDDIFRIIMAIVLFFFFSWVPHQIFTFLDVLIQLGVIHDCKISDIVDTAMPITICIAYFNNCLNPLFYGFLGKKFKKYFLQLLKYIPPKAKSHSSLSTKMSTLSYRPSDNMSSSAKKPASCFEVE
notes: angiotensin II subtype 1a receptor, family A GPCR; theoretical contour length of the HA-tagged receptor 147 nm at 0.4 nm per amino acid; The subtype name 1a points to a rodent receptor (rat P25095 or mouse P29754, both 359 residues); 147 nm (about 368 residues) fits 359 residues plus a 9-residue HA tag; also called HA-AT1a-R; AT1a-R; source: WTT-CHO cells, transiently transfected (1 µg vector); …
The term stoichiometry N denotes a count of units in the complex or per binding partner. Turning to B1, the “stoichiometry N” value came to 2.
